Assay results: FireProtDB (doi:10.1021/bi0015717)

Settings: Homo sapiens; pH 2.7; Thermal; DSC; glycine-HCl 0.05 M; reversible: yes; whole UniProt chain shown

B1: Lysozyme C wild type, P61626 (protein)
chain: MKALIVLGLVLLSVTVQGKVFERCELARTLKRLGMDGYRGISLANWMCLAKWESGYNTRATNYNAGDRSTDYGIFQINSRYWCNDGKTPGAVNACHLSCSALLQDNIADAVACAKRVVRDPQGIRAWVAWRNRCQNRDVRQYVQGCGV
  Tm: 64.9 °C
  heat capacity change of unfolding: 1.58 kcal/mol/K
  unfolding enthalpy (calorimetric): 114 kcal/mol
